Target: the molecule itself
Experiment: SEC; analytical gel filtration chromatography of purified AA-LCKS; conditions not given

B1: LPS-specific CMP-Kdo synthetase (KdsB) from Aquifex aeolicus (enzyme)
chain: MRRAVIIPARLGSTRLKEKPLKNLLGKPLIRWVVEGLVKTGERVILATDSERVKEVVEDLCEVFLTPSDLPSGSDRVLYVVRDLDVDLIINYQGDEPFVYEEDIKLIFRELEKGERVVTLARKDKEAYERPEDVKVVLDREGYALYFSRSPIPYFRKNDTFYPLKHVGIYGFRKETLMEFGAMPPSKLEQIEGLEQLRLLENGIKIKVLITENYYHGVDTEEDLKIVEEKLKNL
notes: CMP-Kdo synthetase KdsB (EC 2.7.7.38) of Aquifex aeolicus; the structure describes residues 2-234 (N-terminal domain 2-91 and 220-234, C-terminal domain 100-210); monomer 27 kDa by SDS-PAGE; No tag is mentioned; In the crystal the protein carries CTP and two Mg2+ ions; also called AA-LCKS; CKS
stoichiometry N: 2
